Positions count from the first letter of the chain named.

The values that follow come from US20260274985A1 (MYTHIC THERAPEUTICS, published 2026).

For test [1], the target named is T1, Human TROP2 Protein, His Tag (Acro Biosystems) (human, UniProt P09758 27-274).
T1 construct: Bought protein; also called TACSTD2; not shown: His tag
T1 sequence: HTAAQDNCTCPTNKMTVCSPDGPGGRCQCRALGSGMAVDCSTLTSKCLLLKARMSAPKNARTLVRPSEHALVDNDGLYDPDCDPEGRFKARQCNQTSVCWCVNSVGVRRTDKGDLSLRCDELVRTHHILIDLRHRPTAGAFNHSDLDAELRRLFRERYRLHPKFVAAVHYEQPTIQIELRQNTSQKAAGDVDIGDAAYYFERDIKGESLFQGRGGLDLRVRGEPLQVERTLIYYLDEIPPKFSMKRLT
The experiment in a line: BLI (Octet).

The target in test [2] is T2, Human TROP2 Protein, His Tag (human, UniProt P09758 27-274).
T2 construct: Bought protein; also called TACSTD2; not shown: His tag
T2 sequence (looked up): T1 sequence
The experiment in a line: BLI (Octet). On the technique in general: Biolayer interferometry detects binding as a change in optical thickness at a sensor tip.

B1: MYT12428 (hu7E6SVG variant, HCV substitutions at 103, 106) (antibody, V domains shown)
VH: QVQLQESGPGLVKPSETLSLTCTVSGGSISSYGVHWIRQPPGKGLEWIGVIWTSGVTDYNSALMGRVTISVDTSKNQFSLKLSSVTAADTAVYYCARDGDYDHYTHDYWGQGTLVTVSS
VL: DIVMTQSPDSLAVSLGERATINCRASKSVSTSGYSYMHWYQQKPGQPPKLLIYLASNLESGVPDRFSGSGSGTDFTLTISSLQAEDVAVYYCQHSRELPYTFGQGTKLEIK
In the case of B1, the binding result in test [1] is recorded as “binds”.

B2: MYT12441 (hu7E6SVG variant, LCV substitutions at 59, 94 (Ala at 94)) (antibody, V domains shown)
VH: B1 VH with H103R, H106M
VL: B1 VL with E59H, H94A
notes: Full IgG in Expi293 supernatant
Regarding B2, in test [1], the binding result is “binds”.

B3: MYT12453 (hu7E6SVG variant, LCV substitutions at 97, 101) (antibody, V domains shown)
VH: B1 VH with H103R, H106M
VL: B1 VL with E97H, T101H
notes: as for B2
Take B3: in test [1], the binding result is listed as “binds”.

B4: MYT12444 (hu7E6SVG variant, LCV substitutions at 60, 93) (antibody, V domains shown)
VH: B1 VH with H103R, H106M
VL: B1 VL with S60H, Q93H
notes: as for B2
With B4, the binding result in test [1] was “binds”.

B5: MYT12445 (hu7E6SVG variant, LCV substitutions at 60, 94 (Ala at 94)) (antibody, V domains shown)
VH: B1 VH with H103R, H106M
VL: B1 VL with S60H, H94A
notes: as for B2
In the case of B5, in test [1], the binding result is “binds”.

B6: MYT12438 (hu7E6SVG variant, HCV substitutions at 56, 103, 106) (antibody, V domains shown)
VH: B1 VH with V56H
VL: B1 VL
For B6, the binding result in test [1] was “binds”.

B7: MYT12466 (hu7E6SVG variant, LCV substitutions at 60, 93, 101) (antibody, V domains shown)
VH: B1 VH with H103R, H106M
VL: B1 VL with S60H, Q93H, T101H
notes: as for B2
Regarding B7, the binding result in test [1] is on record as “binds”.

B8: MYT12454 (hu7E6SVG variant, LCV substitutions at 59, 60, 93) (antibody, V domains shown)
VH: B1 VH with H103R, H106M
VL: B1 VL with E59H, S60H, Q93H
notes: as for B2
On to B8, for which the binding result in test [1] was “binds”.

B9: MYT12447 (hu7E6SVG variant, LCV substitutions at 60, 101) (antibody, V domains shown)
VH: B1 VH with H103R, H106M
VL: B1 VL with S60H, T101H
notes: as for B2
As for B9, the binding result in test [1] is reported as “binds”.

B10: MYT12472 (hu7E6SVG variant, LCV substitutions at 93, 97, 101) (antibody, V domains shown)
VH: B1 VH with H103R, H106M
VL: B1 VL with Q93H, E97H, T101H
notes: as for B2
Consider B10, for which the binding result in test [1] is “binds”.

B11: MYT12432 (hu7E6SVG variant, HCV substitutions at 33, 56, 103) (antibody, V domains shown)
VH: B1 VH with G33H, V56H, H106M
VL: B1 VL
Take B11: in test [1], the binding result is listed as “binds”.

B12: MYT12451 (hu7E6SVG variant, LCV substitutions at 94, 97 (Ala at 94)) (antibody, V domains shown)
VH: B1 VH with H103R, H106M
VL: B1 VL with H94A, E97H
notes: as for B2
With B12, in test [1], the binding result is “binds”.

B13: MYT12449 (hu7E6SVG variant, LCV substitutions at 93, 97) (antibody, V domains shown)
VH: B1 VH with H103R, H106M
VL: B1 VL with Q93H, E97H
notes: as for B2
On to B13, for which the binding result in test [1] is on record as “binds”.

B14: MYT12448 (hu7E6SVG variant, LCV substitutions at 93, 94 (Ala at 94)) (antibody, V domains shown)
VH: B1 VH with H103R, H106M
VL: B1 VL with Q93H, H94A
notes: as for B2
Regarding B14, the binding result in test [1] is “binds”.

B15: MYT12437 (hu7E6SVG variant, HCV substitutions at 51, 103, 106) (antibody, V domains shown)
VH: B1 VH with I51H
VL: B1 VL
In the case of B15, in test [1], the binding result was “binds”.

B16: MYT12435 (hu7E6SVG variant, HCV substitutions at 51, 56, 103) (antibody, V domains shown)
VH: B1 VH with I51H, V56H, H106M
VL: B1 VL
On to B16, for which, in test [1], the binding result is “binds”.

B17: MYT12450 (hu7E6SVG variant, LCV substitutions at 93, 101) (antibody, V domains shown)
VH: B1 VH with H103R, H106M
VL: B1 VL with Q93H, T101H
notes: as for B2
Take B17: in test [1], the binding result is reported as “binds”.

B18: MYT12443 (hu7E6SVG variant, LCV substitutions at 59, 101) (antibody, V domains shown)
VH: B1 VH with H103R, H106M
VL: B1 VL with E59H, T101H
notes: as for B2
As for B18, in test [1], the binding result was “binds”.

B19: MYT12446 (hu7E6SVG variant, LCV substitutions at 60, 97) (antibody, V domains shown)
VH: B1 VH with H103R, H106M
VL: B1 VL with S60H, E97H
notes: as for B2
On to B19, for which the binding result in test [1] is listed as “binds”.

B20: MYT12469 (hu7E6SVG variant, LCV substitutions at 60, 97, 101) (antibody, V domains shown)
VH: B1 VH with H103R, H106M
VL: B1 VL with S60H, E97H, T101H
notes: as for B2
Turning to B20, in test [1], the binding result is “binds”.

B21: MYT12430 (hu7E6SVG variant, HCV substitutions at 33, 51, 103) (antibody, V domains shown)
VH: B1 VH with G33H, I51H, H106M
VL: B1 VL
Consider B21, for which, in test [1], the binding result is listed as “binds”.

B22: MYT12436 (hu7E6SVG variant, HCV substitutions at 51, 56, 106) (antibody, V domains shown)
VH: B1 VH with I51H, V56H, H103R
VL: B1 VL
Regarding B22, the binding result in test [1] was “binds”.

B23: MYT12455 (hu7E6SVG variant, LCV substitutions at 59, 60, 94 (Ala at 94)) (antibody, V domains shown)
VH: B1 VH with H103R, H106M
VL: B1 VL with E59H, S60H, H94A
notes: as for B2
Turning to B23, in test [1], the binding result is reported as “binds”.

B24: MYT12442 (hu7E6SVG variant, LCV substitutions at 59, 97) (antibody, V domains shown)
VH: B1 VH with H103R, H106M
VL: B1 VL with E59H, E97H
notes: as for B2
Regarding B24, the binding result in test [1] was “binds”.

B25: MYT11636 (antibody, V domains shown)
VH: QVQLVQSGAEVKKPGASVKVSCKASHYTFTTAGMQWVRQAPGQGLEWMGWINTHSGVPKYAEDFKGRVTISADTSTSTAYLQLSSLKSEDTAVYYCARSGFGSSYWYFDVWGQGTLVTVSS
VL: DIQMTQSPSSLSASVGDRVTITCKASQDVSTAVAWYQQKPGKAPKLLIYSASYRYTGVPSRFSGSGSGTDFTLTISSLQPEDFAVYYCQQHYITPLTFGQGTKLEIK
notes: IgG from supernatant; His at HCV position 26; also called datopotamab variant H1 01
With B25, in test [2], the binding result is “binds”.

B26: MYT11646 (antibody, V domains shown)
VH: B25 VH with H26G, W50H
VL: B25 VL
notes: IgG from supernatant; His at HCV position 50; also called datopotamab variant H2 01
For B26, in test [2], the binding result is on record as “binds”.

B27: MYT11650 (antibody, V domains shown)
VH: B25 VH with H26G, H54A
VL: B25 VL
notes: IgG from supernatant; Ala at HCV position 54 (starting residue His); also called datopotamab variant H2 05
Take B27: in test [2], the binding result is on record as “binds”.

B28: MYT11653 (antibody, V domains shown)
VH: B25 VH with H26G, V57H
VL: B25 VL
notes: IgG from supernatant; His at HCV position 57; also called datopotamab variant H2 08
As to B28, the binding result in test [2] was “binds”.

B29: MYT11644 (antibody, V domains shown)
VH: B25 VH with H26G, M34H
VL: B25 VL
notes: IgG from supernatant; His at HCV position 34; also called datopotamab variant H1 09
Regarding B29, the binding result in test [2] is given as “binds”.

B30: MYT11642 (antibody, V domains shown)
VH: B25 VH with H26G, A32H
VL: B25 VL
notes: IgG from supernatant; His at HCV position 32; also called datopotamab variant H1 07
As to B30, the binding result in test [2] is on record as “binds”.

B31: MYT11651 (antibody, V domains shown)
VH: B25 VH with H26G, S55H
VL: B25 VL
notes: IgG from supernatant; His at HCV position 55; also called datopotamab variant H2 06
Take B31: in test [2], the binding result is reported as “binds”.

B32: MYT11647 (antibody, V domains shown)
VH: B25 VH with H26G, I51H
VL: B25 VL
notes: IgG from supernatant; His at HCV position 51; also called datopotamab variant H2 02
For the molecule B32, the binding result in test [2] is “binds”.

B33: MYT11639 (antibody, V domains shown)
VH: B25 VH with H26G, F29H
VL: B25 VL
notes: IgG from supernatant; His at HCV position 29; also called datopotamab variant H1 04
Take B33: the binding result in test [2] is listed as “binds”.

B34: MYT11652 (antibody, V domains shown)
VH: B25 VH with H26G, G56H
VL: B25 VL
notes: IgG from supernatant; His at HCV position 56; also called datopotamab variant H2 07
Regarding B34, in test [2], the binding result is “binds”.

B35: MYT11641 (antibody, V domains shown)
VH: B25 VH with H26G, T31H
VL: B25 VL
notes: IgG from supernatant; His at HCV position 31; also called datopotamab variant H1 06
On to B35, for which the binding result in test [2] was “binds”.

B36: MYT11637 (antibody, V domains shown)
VH: B25 VH with H26G, Y27H
VL: B25 VL
notes: IgG from supernatant; His at HCV position 27; also called datopotamab variant H1 02
Turning to B36, the binding result in test [2] is on record as “binds”.

B37: MYT11640 (antibody, V domains shown)
VH: B25 VH with H26G, T30H
VL: B25 VL
notes: IgG from supernatant; His at HCV position 30; also called datopotamab variant H1 05
Turning to B37, the binding result in test [2] was “binds”.

B38: MYT11648 (antibody, V domains shown)
VH: B25 VH with H26G, N52H
VL: B25 VL
notes: IgG from supernatant; His at HCV position 52; also called datopotamab variant H2 03
In the case of B38, the binding result in test [2] is recorded as “binds”.

B39: MYT11649 (antibody, V domains shown)
VH: B25 VH with H26G, T53H
VL: B25 VL
notes: IgG from supernatant; His at HCV position 53; also called datopotamab variant H2 04
With B39, the binding result in test [2] was “binds”.

B40: MYT11638 (antibody, V domains shown)
VH: B25 VH with H26G, T28H
VL: B25 VL
notes: IgG from supernatant; His at HCV position 28; also called datopotamab variant H1 03
For B40, the binding result in test [2] is reported as “binds”.
